This is an account of results in patent US20120237948A1 (published 2012).

Experiment in all cases: competitive ELISA
Assay [1] deals with T1, peptide Gly-Pro-Pro-Gly-Pro-Gln-Gly-Leu-Ala-Gly-Gln-Arg (SEQ ID NO: 16).
T1 peptide: GPPGPQGLAGQR

Assay [2] concerns the target neoepitope peptide Asp-Gly-Pro-Ser-Gly-Ala-Glu-Gly-Pro-HyP-Gly-Pro-Gln-Gly (SEQ ID NO: 14) (hydroxyproline (HyP) at position 10 of the peptide (position 971)).
Assay [3] concerns the target T2, peptide Gly-Glu-Pro-Gly-Asp-Asp-Gly-Pro-Ser-Gly-Ala-Glu-Gly-Pro-Pro-Gly-Pro-Gln-Gly (SEQ ID NO: 18).
T2 peptide: GEPGDDGPSGAEGPPGPQG

Assay [4] has as its target T3, peptide Gly-Glu-Pro-Gly-Asp-Asp-Gly-Pro-Ser-Gly-Ala-Glu-Gly-Pro-HyP-Gly-Pro-Gln-Gly (SEQ ID NO: 17).
T3 peptide: GEPGDDGPSGAEGP[Hyp]GPQG

For assay [5], the target named is T4, neoepitope peptide Gly-Pro-Gln-Gly (SEQ ID NO: 15).
T4 peptide: GPQG

Square brackets hold non-standard residues; d marks the D form. Ends that are not written are not given here. Hyp = O=C(O)[C@@H]1C[C@@H](O)CN1

For orientation: IC50 means the concentration needed to halve the response being measured. Low readings indicate greater potency in that assay, high ones weaker potency in that assay.

B1: anti-neoepitope antibody 20A10 (antibody, V domains shown)
VH: QIQLVQSGPELKEPGETVRISCKASGYTFTKYGINWVKQAPGKGLEWMAWINTYSGMTTYADDFKGRFAFSLETSANTAYLQINHLKNDDTATYFCARSLGYDYGGFAYWGQGTLVTVSA
VL: DVLLTQTPLSLPVSLGDQAFISCRSGQTLVHDNENTYFHWYLQKPGQSPKLLIYKISNRFSGVPDRFSGSGSGTDFTLKISRVEPEDLGIYFCSQNTHVPFTFGSGTKLEIKR
Turning to B1, the IC50 in assay [1] amounted to 20200 nM; in assay [2], 40 nM; in assay [3], 22 nM; in assay [4] it was 20 nM; in assay [5] it was 99000 nM.
